24 sequences from the DeepSol protein solubility set can be followed below.

The nature of the data set: soluble on expression in E. coli; label from the status in PepcDB or PDB records.
For the sequence “GMGQRSDSDHVMAEATTDKRQGHTRGRTGNDRRTQIIKVATELFREKGYYATSLDDIADRIGFTKPAIYYYFKSKEDVLFAIVNSIVDEALERFHAIAAGPGSPGERIHALLVEHTRTILRNLDANTLFYNERGLLSPEREREMRKREREYTEIMQRLYAEGVATGELLDVDPTVATATLLGAAIWTYRWYDPEGRLSADEVVEQITRLLLNGYRRPA”, the “soluble on expression in E. coli” value is “soluble”.

On to “GMGVNMRAETESRIFSVDEYVRPSNGEPIRSVVLETNDSVVVVWHAHPGQEIASHVHPHGQDTWTVISGEAEYHQGNGIVTHLKAGDIAIAKPGQVHGAMNSGPEPFIFVSVVAPGNAGFALAEK”, for which the “soluble on expression in E. coli” value was “soluble”.

In the case of “GMIGDGIENSPLLTDLAFPYRLLGAGKESRECLFLLHGSGVDETTLVPLARRIAPTATLVAARGRIPQEDGFRWFERIDPTRFEQKSILAETAAFAAFTNEAAKRHGLNLDHATFLGYSNGANLVSSLMLLHPGIVRLAALLRPMPVLDHVPATDLAGIRTLIIAGAADETYGPFVPALVTLLSRHGAEVDARIIPSGHDIGDPDAAIVRQWLAGPIAIAQAD”, the “soluble on expression in E. coli” value is recorded as “soluble”.

Consider “GMILKTNLFGHTYQFKSITDVLAKANEEKSGDRLAGVAAESAEERVAAKVVLSKMTLGDLRNNPVVPYETDEVTRIIQDQVNDRIHDSIKNWTVEELREWILDHKTTDADIKRVARGLTSEIIAAVTKLMSNLDLIYGAKKIRVIAHANTTIGLPGTFSARLQPNHPTDDPDGILASLMEGLTYGIGDAVIGLNPVDDSTDSVVRLLNKFEEFRSKWDVPTQTCVLAHVKTQMEAMRRGAPTGLVFQSIAGSEKGNTAFGFDGATIEEARQLALQSGAATGPNVMYFETGQGSELSSDAHFGVDQVTMEARCYGFAKKFDPFLVNTVVGFIGPEYLYDSKQVIRAGLEDHFMGKLTGISMGCDVCYTNHMKADQNDVENLSVLLTAAGCNFIMGIPHGDDVMLNYQTTGYHETATLRELFGLKPIKEFDQWMEKMGFSENGKLTSRAGDASIFLK”, for which the “soluble on expression in E. coli” value is on record as “soluble”.

Consider “GMKQSKKIIITCAVTGSIHTPTMSPYLPITPEEIVKEGVAAAEAGAAMLHLHARDPLNGRPSQDPDLFMRFLPQLKERTDAILNITTGGGLGMSLDERLAPARAARPEVASMNMGSLNFNISQAAAKFDTFKFDWERPYLAGTRDFILSNTFSQIERGMTELGASGTRFEFECYDVGHLYNLAHFVDRKLVEPPFFLQCVFGILGGIGADPENLLHMRTIADRLFGQDYYLSVLAAGRHQMPFVTMSAILGGNVRVGLEDSLYSGKGQLATSNAEQVRKIRRIIEELSLDIATPDEARAMLKTKGANETSF”, for which the “soluble on expression in E. coli” value was “soluble”.

With “GMKYKAAIFDMDGTILDTSADLTSALNYAFEQTGHRHDFTVEDIKNFFGSGVVVAVTRALAYEAGSSRESLVAFGTKDEQIPEAVTQTEVNRVLEVFKPYYADHCQIKTGPFPGILDLMKNLRQKGVKLAVVSNKPNEAVQVLVEELFPGSFDFALGEKSGIRRKPAPDMTSECVKVLGVPRDKCVYIGDSEIDIQTARNSEMDEIAVNWGFRSVPFLQKHGATVIVDTAEKLEEAILGE”, the “soluble on expression in E. coli” value was “soluble”.

Consider “GMNQNKITAGGLEFLVRFAAPTDRLKINDLMIDTARWLKESGSTQWSDILHGFDVHNIEQRIELGEVALFETEAGALAGAMIIRKTPSDWDTDLWEDLAIDKAYYLHRIMVSRAFSGISLSKQMIYFAEKLGIEMSVPFIRLDCIESNETLNQMYVRYGFQFSGKKNGFYLYQKELSQK”, for which the “soluble on expression in E. coli” value is “soluble”.

For the sequence “GMPQHDKSRLVRIDTGPMINPVAGKPSRPIAGDASFRTVTAFEGGQGKVESGVWESTSGSFQSNTTGYIEYCHIIEGEARLVDPDGTVHAVKAGDAFIMPEGYTGRWEVDRHVKKIYFVTHLA”, the “soluble on expression in E. coli” value is on record as “soluble”.

For the sequence “GMPRPKLKSDDEVLEAATVVLKRCGPIEFTLSGVAKEVGLSRAALIQRFTNRDTLLVRMMERGVEQVRHYLNAIPIGAGPQGLWEFLQVLVRSMNTRNDFSVNYLISWYELQVPELRTLAIQRNRAVVEGIRKRLPPGAPAAAELLLHSVIAGATMQWAVDPDGELADHVLAQIAAILCLMFPEHDDFQLLQAHA”, the “soluble on expression in E. coli” value is recorded as “soluble”.

Turning to “GMQATTATPHDIVFLFDCDNTLLDNDHVLADLRAHMMREFGAQNSARYWEIFETLRTELGYADYLGALQRYRLEQPRDTRLLLMSSFLIDYPFASRVYPGALNALRHLGARGPTVILSDGDVVFQPRKIARSGLWDEVEGRVLIYIHKELMLDQVMECYPARHYVMVDDKLRILAAMKKAWGARLTTVFPRQGHYAFDPKEISSHPPADVTVERIGDLVEMDAEWLLAEKR”, the “soluble on expression in E. coli” value is on record as “soluble”.

“GMQGAGRLMQPRPDSAFVHDVRVTWGDCDPAKIAYTGHLPRFALEAIDAWWSEYHGPGGWYHLELDTNVGTPFVRLEMDFKSPVTPRHILKCHTWPTRLGTKSITFRVDGVQDGVTCFVGAFTCVFTIADQFKSQPAPDHLRALIEPHIPA”: the “soluble on expression in E. coli” value is “soluble”.

Regarding “GMQQSEHFSFGEQTEIEDIGGGLKRQMLGFNHELMAVKIWFDKGAEGYVHAHRHSQVSYVVEGEFHVNVDGVIKVLTAGDSFFVPPHVDHGAVCPTGGILIDTFSPAREDFVEGLS”, the “soluble on expression in E. coli” value is on record as “soluble”.

In the case of “GMSAQAKNKLEALKAMTTVVADTGDIEAIKQFKPVDATTNPSLILKAAKLANYQHLIEEAIDWALQIKGNDKNSQTTLENVGDKLAVNIGCEVLTSIPGVISTEVDARLSFDTQATVAKARKLIRLYQDAGIDSDRILIKIASTWEGIQAAKILEAEGIHCNLTLLFHFAQAQACAEAGTTLISPFVGRILDWYKANSGQSEYSASEDPGVVSVTEIYNFYKSHGFKTIVMGASFRNTGEIEELAGCDRLTISPELLAQLEADTSPLEQKLFPIKETKDTPELLTEASFRWAMNNDPMAHDKLADGIRRFAADQVTLESMLSKKISQRS”, the “soluble on expression in E. coli” value is recorded as “soluble”.

For “GMSGDILNDIVAACLELERKASSVFKMFAAHAGSDEARRFWETVADETRHHSAVYERLQERGGRENLPIIIYKPAETLEELEMIGKSIDEQVERYTEAPSSEAACLLGFRLQLYLLHPAFASLCRLTRDASGEDLPDIGYGRYLRRFIDGIGSCGLATAETELLGEALFRLWNEARQLAAQSHFDALTGVMTRAGFFKTVGSLAYAAQRSGSNVGIMLIDLDYFKLVGDNYGHQTGDRILQLVAETITSHLRRSDVVGRYDGDEFVVYLSPVEPASLRTVAENLRRSIEEESARMVPVTASIGVAQGILGTDVDGGIEELVRLADECLMQAKYTGKNKVVVK”, the “soluble on expression in E. coli” value is “soluble”.

With “GMSLAPWRGAIAHALHRNRSLVYARYLQLATVQPNGRPANRTLVFRGFLEDTNQLRFITDTRSAKADQIQQQPWAEICWYFPNTREQFRMAGDLTLISSDDSHQDLQPARIAMWQELSDAARLQFGWPYPGKPRIKESGAFEPSPPDPIEPVPNFCLLLLDPVQVDHLELRGEPQNRWLYHRNDQQEWSSEAINP”, the “soluble on expression in E. coli” value was “soluble”.

On to “GMSQATAKVNREVQAFLQDLKGKTIDHVFFVACGGSSAIMYPSKYVFDRESKSINSDLYSANEFIQRNPVQLGEKSLVILCSHSGNTPETVKAAAFARGKGALTIAMTFKPESPLAQEAQYVAQYDWGDEALAINTNYGVLYQIVFGTLQVLENNTKFEQAIEGLDQLQAVYEKALKQEADNAKQFAKAHEKESIIYTMASGANYGVAYSYSICILMEMQWIHSHAIHAGEYFHGPFEIIDESVPFIILLGLDETRPLEERALTFSKKYGKKLTVLDAASYDFTAIDDSVKGYLAPLVLNRVLRSYADELAEERNHPLSHRRYMWKVEY”, for which the “soluble on expression in E. coli” value was “soluble”.

For “GMSVPQRPHQFVLTLSCPSAAGQVAAVVGLLDRHRCYVDELTVFDDDLSARFFVRCVFHATDDADALRVDALRREFEPIAERFRMQWAIHDVAARPKVLIMVSKLEHCLADLLFRWKMGELKMDIVGIVSNHPDFAPLAAQHGLPFRHFPITADTKAQQEAQWLDVFETSGAELVILARYMQVLSPEASARLANRAINIHHSFLPGFKGAKPYHQAHARGVKLIGATAHFVTDDLDEGPIIEQVVERVDHSYRPEQLLAVGRDVECITLARAVKAFIERRVFLNGDRTVVFQ”, the “soluble on expression in E. coli” value is “soluble”.

For the sequence “GMTKLPATSDIYISFFMFTTNLQPDNLDYRRIVVAHIKKLQRFGYSGFEFPIAPGLPENYAQDLENYTNLRHYLDSEGLENVKISTNVGATRTFDPSSNYPEQRQEALEYLKSRVDITAALGGEIMMGPIVIPYGVFPTTDFNEPIWSDELQEHLKVRYANAQPILDKLGEYAEIKKVKLAIEPITHWETPGPNKLSQLIEFLKGVKSKQVGVVIDSAHEILDGEGPEIFKTQVEYLAQQGRLHYVQVSPPDRGALHTSWLPWKSFLTPIVKVYDGPIAVEIFNAIPAFTNSLRLTRRKFWIPDEDPPNQYPNAYDIADEAIKVTRKELKKIGSK”, the “soluble on expression in E. coli” value was “soluble”.

In the case of “GMTQPHQIILLAHGSSDARWCETFEKLAEPTVESIENAAIAYMELAEPSLDTIVNRAKGQGVEQFTVVPLFLAAGRHLRKDVPAMIERLEAEHGVTIRLAEPIGKNPRLGLAIRDVVKEELERSEH”, the “soluble on expression in E. coli” value is recorded as “soluble”.

“GMTQQTDLQSKTNIDPLAMNDSFLAAADALAVDPMFGIPANVREVIARRGNATRLVILGTKGFGAHLMNVRHERPCEVIAAVDDFRYHSGELYYGLPIISTDRFTELATHDRDLVALNTCRYDGPKRFFDQICRTHGIPHLNFEQAVRAFGLQGNVDYRVDDWGADIVRNIPAFQTLAQRLADDYSVQTLYAVLNFHLTCEPEYYHEVERPYSTLYFRSGLLRFSDSEKMVDCGASIGESLAGLIGVTKGKFERVWMIEPDRINLQTLQNVLRRYTDTNFASRITVHGCGAGENTIRVPFNHEGGHGGFVKPADADHEPADLIDVRPIDDIIDDAPTFIKMDIEGSELSALKGARRAISEHKPKLAISAYHRSTDLLDLTNYILSIRPDYQIGLRHHTPDRWDTCLYFY”: the “soluble on expression in E. coli” value is on record as “soluble”.

Consider “GMTRIASHRGGTLEFGDSTPHGFTATAAMALEEVEFDLHPTADGAIVVHHDPTLDATTDMTGAIVDMTLAKVKTATIRYGAGSHPMTLEELCALYVDSHVNFRCEIKPGVDGLPYEGFVALVIAGLERHSMLERTTFSSFLLASMDELWKATTRPRLWLVSPSVLQQLGPGAVIETAIAHSIHEIGVHIDTADAGLMAQVQAAGLDFGCWAAHTPSQITKALDLGVKVFTTDRPTLAIALRTEHRMEASV”, for which the “soluble on expression in E. coli” value is on record as “soluble”.

Regarding “GMVPMTRFDSATEVVRVGENRYAVELDPGYLIGTAMNGGYLMTVLQRSALAESDHLHAVSSSYHFHRPASSGPAEIETRVLKRGRTVTTVQTTLFQEGRTILTGTLATATLDPHAEPRYAAPQPAIPPQHQCRRVDPRQSHLPDDGFLARVDVDFSPDSYAALARERTVTTPELCGYVDLSARDGGSAKDPLAFLPLAVDALPPIVSLLVDWSWAPTVELTWHLRAIPEPGPLAFRSTCALVSDGWFDENVDLWDARGRLVAQSRQLARVGR”, the “soluble on expression in E. coli” value is given as “soluble”.

Turning to “GNIESIENLQGIRALQQQAPQLLSSGLPNEQQFSLLKQAGVDVVINLMPDSSKDAHPDEGKLVTQAGMDYVYIPVDWQNPKVEDVEAFFAAMDQHKGKDVLVHCLANYRASAFAYLYQLKQGQNPNMAQTMTPWNDELAIYPKWQALLTEVSAKYGH”, the “soluble on expression in E. coli” value was “soluble”.

For “GNNFNWTSVLNMTHNKNKIVSLDGKLDQSIEGSWFIHKVGLPYSTFYVKEYAGVDPQTGKALYYMNTQDANGNYDRTVTTDASAAQAIPYKSVDPKISGGFTNIVNYKWFDLALTLTYSLGGYSFDKTGTYNETDGAKEQNYNLPIYELDRWQKPGDVTDVPRFVLGQAAGPQNSSRYVHSTDHLRVKNLTLGFTLPDQWLTKLGVSKARLYFSGSNLLTWAKWDQYDPEVPVSGEVFCETPPMRTYSFGIEVSF”, the “soluble on expression in E. coli” value is listed as “not soluble”.
